Assay: yeast display, Sf9 membrane polyspecificity reagent, FACS + sequencing; frameworks hold sequencing errors
Procedure, shortened: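 Nanobodies came from a synthetic yeast display library in Saccharomyces cerevisiae BJ5465, induced with galactose for 36–48 hours and stained for 1 hour at 4 °C with 10% biotinylated, detergent-solubilized Sf9 membrane reagent. Cells were enriched on streptavidin microbeads and then FACS-sorted, with low and high (top ~1%) gates set on anti-HA fluorescence for expression and streptavidin fluorescence for reagent binding. Each polyreactivity label reflects the gate a clone came from. Genes were amplified by colony PCR, sequenced by MiSeq 2 × 250 and filtered by CDR length.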

Sequence | polyreactivity (PSR sort gate)
QVQRVESGGGLVQAGGSLRLSCAASGSIFFRNVMGWYRQAPGKERELVAAISSRGGSTYYADSVKGRFTISRDIAKNTVYLQMNSLKPEDTAVYYCATSHTPTYNYWGQGPQVTVSS | high polyreactivity
QVQRVESGGGLVQAGGSLRLSCAASGSIFPSNTMGWYRQAPGKERELVAAISGSGTRTYYADSVKGRFTISRDNAKNTVYLQMNSLKPEDTAVYYCAADVDYWGQGTQVTVSS | low polyreactivity
QVQRVESGGGLVQAGGSLRLSCAASGSIFSIYAMGWYRQAPGKETELVAAIDSGTSTTYADSVKGRFTISRDNAKNTVYLEMNSLKPEDTAVYYCAAALYSDVAAVATYGYYCGQGTQVTVSS | low polyreactivity
QVQRVESGGGLVQAGGSLRLSCAASGSNFRVYVMGWYRQAPGKERELVARIRYRSGRTNYADSVKGRFTISRDNAKNTVYLQMNSLKPEDTAVYYCAARTPAYARTYGYWGQGTQVTVSS | high polyreactivity
QVQRVESGGGLVQAGGSLRLSCAASGSTFGNAMGWYRQAPGKERELVAAISSRGDRTYYADSVQGRFTISRDNAKNTVYLQMNSLKPEDTAVYYCAKDGYPNKYDYWGQGTQVTVSS | high polyreactivity
QVQRVESGGGLVQAGGSLRLSCAASGSTFWFNAMGWYRQAPGKERELVAAITYRGASTNYADSVKGRFTISRDNAKNTVYLQMNSLKPEDTAVYYCATRPTWRPVPDSDVSTYGYWGQGTQVTVSS | low polyreactivity
QVQRVESGGGLVQAGGSLRLSCAASGYIFKYYAMGWYRHSPGKVRELVAAITGGVSTNYADSVKGRFTISRDNAKNTVYLQMNSLKPEDTAVYYCAAAITPSYTGSEYDYWGQGTQVTVSS | low polyreactivity
QVQRVESGGGLVQAGGSLRLSCAASGYTSQVKDMGWYRQAPGKERELVAAISSTGDRTYYADSVKGRFTISRDNAKNTVYLQMNSLKPEDTAVYYCNADLTSYYEEDERNDDDYWGQGTQVTVSS | low polyreactivity
QVQRVESGGGLVQAGGSLRLSCGASGSTFWAYVMGWYRPAPGKERELVAAMSSGGTTNYADSVKGRFTISRDNAKNTVYLQMNSLKPEDTAVYYCAAGRPGELDYWGQGTQVTVSS | low polyreactivity
QVQRVESGGGLVQAGGSLRLSSAASGRIFWDNAMGGYRQEPGKERELVAAISDSVVITYYADSVKGRFTITRDNAKNTVYLQMNSLKPEDTAVYYCNVTGGPYDFTRWSEFDHWGQGTQETVSS | low polyreactivity
QVQRVESGGGLVQAGGSLRLSSAASGRTSRYAMGWYRQAPGKERELVAAISRSGGSTHNADSVKGRFTISRDNAKNNVYLHMNSLKPEDTAVYSCNAQQGRYWSAKGYDYWGQGTQVTVSS | high polyreactivity
QVQRVESGGGLVQAGGSLRLTCAASGITFFVYAMGCYRQAPGKERELVATINWSGASTYYADSVKGRFTISRDNAKNSVYLQMNSLKPEDTAVYYCAKDGHYPLVYLAFDYWGQGTQVTVSS | low polyreactivity
QVQRVESGGGLVQAGGSLRLTCAASGLTFRTYAMGWYRQAPGKERELVAAISGTGGTTYYADSVKGRFTISRDNAKNTVYLQMNSLKPEDTAVYYCNKRWRRPYPYDYWGQGSQVTVSS | high polyreactivity
QVQRVESGGGLVQAGGSLRLTCAASGSIFRSYAMGWYRQAPGKERELVAAISSSSGSTYYADSVKGRFTISRDKAKYTVYLQMNSLKPEDTAVYYCAARYRIGNNGYEYWGQGTQVTVSS | low polyreactivity
QVQRVESGGGLVQAGGSLRLTCAASGYTSLWYGMGWSRQAPGKERDLVAAISSSGNTNYADSVKGRFTISRDNAKNTVYLQMNSLKPEDTAVYYCAVELKQVTPGLGYITLDYWGQGTQVTVSS | low polyreactivity
QVQRVESGGGLVQAGGSLSLSCAASGRTCGVYAMGWYRQAPGKERELGASSSRSAGSTYYADSVKGRFTISRDNAKNTVYFQMNSLKTEDTAVYYCAAVYKRGMDYWGQGTQVTVSS | high polyreactivity
QVQRVESGGGLVQAGRSLRLSCAASGTTFGRNAMGWYRQAPGIERELVAAINSGGGTYYADSVKGRFTISRDNAKNTVYLQMNSLKPEDTSVFYCAAARRYGNYDYWGQGTQLTVSS | low polyreactivity
QVQRVESGGGLVQAVGRLRLSCAASGSTFYTYTMGWYRPARGKERELVAAITWSGGSTYYADSVKGRFTISRDNAKNTVYLQMNRLKPEDTAVYYCNADQDYQGARPSGMDYWGLGTQVTVSS | low polyreactivity
QVQRVESGGGLVQEGGSLRLSCAASGRIFGYYAMGWYRQAPGKERELVAVITGNGSTYYADSVKGRFTISRDNAKNTVYLQRNSLNPEETAVYYCAARYVFVVRGRTVPRYYYWGQGTQVTVSS | high polyreactivity
QVQRVESGGGVVQAGGSLRLSCAASGSTFQLYAMGWYRQAPGKERELVAGISRDGSTYYADSVKGRFTISRDNAKNTVYLQMNSLKPEDTAVYYCAAKYYGNKRDLYYWGQGTQVTVSS | low polyreactivity
QVQRVESWGGLVQAGGSLRLSCAASGSTFEYNAMGWNRQAPGKEREFVAAISRTGSRTYYADSVKGRFTISRDNAKNTVYLQMNSLKPEDTAVYYCARVKSRLQVGYYYWGQGTQVTVSS | high polyreactivity
QVQVLESGGGLVQAGGSLRLSCAASGSIFDFYAMGWYRQAPGKDRELVAAISYRGGSTYADSVKGRFTISRDNAKNTVYLQMNSLKPEDTAVYYCAKVPDYRFEYWGQGTQVTVSS | high polyreactivity

Sequence | polyreactivity (PSR sort gate)
QVQVVESGGGLDQAGGSLRLSCAASGSIFQVYSMGWYRQAPGQERALVAAITWAAGSTYADSVKGRFTISRDNAKNTVYLQLKSLKPDDTAVYYCAAYPYVGYVTSSAYDYWGQGTQVTVSS | low polyreactivity
QVQVVESGGGLFQAGGSLRLSCAASGYIFRFNAMGWSRQAPGKERELVAVITSGARTYYADSVKGRFTISRDNAKNTVYFQINSLKPEDTAFYYFNAGARRYLYDYWGQGTQVTVSS | low polyreactivity
QVQVVESGGGLVQAGGSLRLSCAASGFIFNTHAMGWYRQAPGKERELVAAITWTGDSTYYADSVKGRFTISRDYAKNTVYLQMNSLKPEDTAVYYCNAATGDWETSIWTYPFWAEMYYWGQGTQVNVSS | low polyreactivity
QVQVVESGGGLVQAGGSLRLSCAASGFIFRYYAMGWYRQAPGKEREFVAAISTSAGSTYYADSVKGRFTISRDNAKNTVYLQMNSLKPEDTAVSYCAAEYWRRASYNYWGQGTQVTVSS | high polyreactivity
QVQVVESGGGLVQAGGSLRLSCAASGFTYGNNGMGWYRQAPGKERELVATISWSGGSTYADSVKGRFTISRDNAKNTVYLQMNSLKPEDTAVYYCAARYFVYYQEVDYWGQGTQVTVSS | low polyreactivity
QVQVVESGGGLVQAGGSLRLSCAASGLTYSYYTMGWYRQAPGKERELVAAITSSSGRTYYADSVKGRITISRDNAKNTVYLQMNSLKPEDTAVYYCAARWSPYDYWGQGTQVTVSS | low polyreactivity
QVQVVESGGGLVQAGGSLRLSCAASGRIFANNAMGWYRQAPGKERELVAAITASSGSTYYADSVKGRFTISRDNAKNTVYFQMNSLKPEDTAFYYCAATLRWGFRWYFGFDYWGQGTQVTVSS | high polyreactivity
QVQVVESGGGLVQAGGSLRLSCAASGRIFPYYTMGWYRQAPGKERDLVAAISRRGSSTYYADSVKGRFTISRDNAKNTVYLQMNSLKPEDTAVYYCAADRGGYTRTGEYDYWGQCTQVTVSS | high polyreactivity
QVQVVESGGGLVQAGGSLRLSCAASGSIFKFNAMGWYRQAPGKERELVAAISYSGGNTDYADSVKGRFTISRDNAKNTVYLQMNSLKPEDTAVYYCAATSYLVLTLEYDYWGQGTQVTVSS | low polyreactivity
QVQVVESGGGLVQAGGSLRLSCAASGSIFSYNAMGWYRQAPGKERELVATITWSAGSTYYADSVKGRFTISRDNAKNPVYLQMNSLKPEDTAVYYCAKRARESSSVSRVNYWFDYWGQGTQVTVSS | low polyreactivity
QVQVVESGGGLVQAGGSLRLSCAASGSIFTYYAMGWYRQAPGKERELVAAINWSGASTYYADSVKGRFTISRDNAKNTVYLQMNSLKPEDTAVYYCAGYGYWGQGTQVTVSS | high polyreactivity
QVQVVESGGGLVQAGGSLRLSCAASGSSFGVNAMGRYTQAPGKERELVASITWSGDNTYYADSVKGRFTISRDNAKNTVYLQMNSLKPEDTAVYYCAATIWIAYRGWYSDYNYWGQGTQVTVSS | low polyreactivity
QVQVVESGGGLVQAGGSLRLSCAASGSTCYFNAMGWYRQAPGTERELVAAIEWSGGSTYYADSVKGRFTISRDNAKNTVYLQMTSLKPEDTAVYYCNRRDVIFLTGPPQYIFPTYDYWGQGTQVTVSS | low polyreactivity
QVQVVESGGGLVQAGGTLRLSCAASGFILPHYTMGWYRQAPAKERELVAAITSGVSTYYADSVKGRFTISRDNAKNTVYLQMNSLKTEDTAVYYCNALATYIGYKYDYWGQGTQVTVSS | low polyreactivity
QVQVVESGGGLVQEGGSHRISCAASGRIFFTNAMGWSRQAPGKERELVAAINDVGSTYYADSVKGRFTISRDNAKNTVYLQLNSLKAEDTAVYYCAVQAYGRGRSLKMYYWRQGTQVTVSS | high polyreactivity
QVQVVESVGGLVQAGGILRLSCAASGRTFRGNAMGWYRQAPGKERELVAAISSSGARTYYADSVKGRFTISRDNAKNTVYLQMNSLKPEDTAVYYCAAVYTDGALQGYDYWGQGTQVTVSS | low polyreactivity
QVRLVESGGGLDQAGGSLRLSSAASGRIFNRNAMGWYRQAPGKARELVAAINRGGSTNYADSVKGRFTISRDNAKNTVYLQLNRLKPEDTAVYYCAAELLYATLWRRYSGYYYWGQGTQVTVSS | high polyreactivity
QVRLVESGGGLGQAGGSLRLSCAASGPIFDTNAMGWYRQAPGKERELVAAISYIGGGTYYADSVKGRFTISRDNAKNTVYLQMNSLKPEDTAVYYCAAEQIYVFFGDWMEYWGQGTQVTVSS | low polyreactivity
QVRLVESGGGLVQAGGSLRLSCAASGRIFQYYSMGWYRQAPGKERELVASITSGGGSTYYADSVKGRFTISRDNAKNTVYLQMNSLKPEDTAVYYCNARWYGLSTRYDYWGQGTQVTVSS | low polyreactivity
QVRLVESGGGLVQAGGSLRLSCAASGSIFQYYVMGWYRQAPGKERELVAAISRNGGRTYYADSVKGRFTISRDNAKNTVYLQMNSLKPEDTAVYYCAADSIPHRDNYWGQGTQVTVSS | high polyreactivity
QVRLVESGGGLVQAGGSLRLSCAASGSTFPYYDMGWYRQAPGKERELVAAITWSSGSTYYADSVKGRFTISRDNAKNTVYLQMNSLKPEDTAVYYCAAELYSYREDYGAHYAYEYWGQGTQVTVSS | low polyreactivity

— the nanobody polyreactivity screen of Harvey et al. (2022)
